The nature of the data set: soluble on expression in E. coli; label from the status in PepcDB or PDB records.
As to “MGHHHHHHSHMANSMANSMGITTLDDPLGHMPERFDAFICYCPSDIQFVQEMIRQLEQTNYRLKLCVSDRDVLPGTCVWSIASELIEKRCRRMVVVVSDDYLQSKECDFQTKFALSLSPGAHQKRLIPIKYKAMKKEFPSILRFITVCDYTNPCTKSWFWTRLAKALSLP”, the “soluble on expression in E. coli” value is recorded as “soluble”.
For “MGHHHHHHSHMANSMANSMIRNKVMEQSFIEYSLGKDASSAVLWVYPARKPRGKAIIMCPGGGFNQIASDHEGRDFAAWFNNQGITYAVLNYRMPHGDVEVIREDIREAIRLIRRQSAEWGIHQLGVMGASIGGYIAATAATLYTGTDRPDFQVLLYPVISMTDRLTHWPSRERMLGETISEGLKETLSLELHVTADTPPTFIVLAEDDQAVSPLNSIVYYTALLKHGVSAGLHIYPEGGHSFGFRDSFIYKELWTDELQKWLLTF”, the “soluble on expression in E. coli” value is listed as “soluble”.
For “MGHHHHHHSHMARPWTEDGDWTEPGAPGGTEDRPSGGGKANRAHPIKQRPFPYEHKNTWSAQNCKNGSCVLDLSKCLFIQGKLLFAEPKDAGFPFSQDINSHLASLSMARNTSPTPDPTVREALCAPDNLNASIESQGQIKMYINEVCRETVSRCCNSFLQQAGLNLLISMTVINNMLAKSASDLKFPLISEGSGCAKVQVLKPLMGLSEKPVLAGELVGAQMLFSFMSLFIRNGNREILLETPAP”, the “soluble on expression in E. coli” value was “not soluble”.
On to “MGHHHHHHSHMASRVRVTILFATETGKSEALAWDLGALFSCAFNPKVVCMDKYRLSCLEEERLLLVVTSTFGNGDCPGNGEKLKKSLFMLKELNNKFRYAVFGLGSSMYPRFCAFAHDIDQKLSHLGASQLTPMGEGDELSGQEDAFRSWAVQTFKAACETF”, for which the “soluble on expression in E. coli” value is listed as “not soluble”.
With “MGHHHHHHSHMCPRCGKQFNHSSNLNRHMNVHRGVKSHSCGICGKCFTQKSTLHDHLNLHSGARPYRCSYCD”, the “soluble on expression in E. coli” value is given as “soluble”.
Next, “MGHHHHHHSHMDADSASQRLVISAPDSQVRFSNIRTNDVAKTPQMHGTEMANSPQPPPLSPHPCDVVDEGVTKTPSTPQSQHFYQMPTPDPLVPSKPMEDRIDSLSQSFPPQYQEAVEPTVYVGTAVNLEEDEANIAWKYYKFPKKKDVEFLPPQLPSDKFKDDPVGPFGQESVTSVTEYVFFLIVTIII”: “not soluble”; “MGHHHHHHSHMDNAVDRHVFYISDGTAITAEVLGHAVMSQFPVTISSITLPFVENESRARAVKDQIDAIYHQTGVRPLVFYSIVLPEIRAIILQSEGFCQDIVQALVAPLQQEMKLDPTPIAHRTHGLNPNNLNKYDARIAAIDYTLAHDDGISLRNLDQAQVILLGVSRCGKTPTSLYLAMQFGIRAANYPFIADDMDNLVLPASLKPLQHKLFGLTIDPERLAAIREERRENSRYASLRQCRMEVAEVEALYRKNQIPWINSTNYSVEEIATKILDIMGLSRRMY”: “not soluble”; “MGHHHHHHSHMDVVDPDIFNRDPRDHYDLLQRLGGGTYGEVFKARDKVSGDLVALKMVKMEPDDDVSTLQKEILILKTCRHANIVAYHGSYLWLQKLWICMEFCGAGSLQDIYQVTGSLSELQISYVCREVLQGLAYLHSQKKIHRDIKGANILINDAGEVRLADFGISAQIGATLARRLSFIGTPYWMAPEVAAVALKGGYNELCDIWSLGITAIELAELQPPLFDVHPLRVLFLMTKSGYQPPRLKEKGKWSAAFHNFIKVTLTKSPKKRPSATKMLSHQLVSQPGLNRGLILDLLDKLKNPGKGPSIGDIEDEEPELPPAIPRRIRSTHRSSSLGIPDADCCRRHMEFRKLRGMETRPPANTARLQPPRDLRSSSPRKQLSES”: “soluble”.
As to “MGHHHHHHSHMEGSETGSREGSDVACTEGICNHDEHGDDSCVHHCEDKEDDGDSCVECWANSEENDTKGKNKKKKKKSKILKCDEHIQKLGSCITDPGNRETSGNTMHTVFHRDKTKDTHPESCCSSEKGGQPLPWFEHRKNVPQFAEPTETLFGPDSGKGAKSLVELLDESECTSDEEIFISQDEIQSFMANNQSFYSNREQYRQHLKEKFNKYCRLNDHKRPICSGWLTTAGAN”, the “soluble on expression in E. coli” value is “not soluble”.
As for “MGHHHHHHSHMGFGSDLKNSHEAVLKLQDWELRLLETVKKFMALRIKSDKEYASTLQNLCNQVDKESTVQMNYVSNVSKSWLLMIQQTEQLSRIMKTHAEDLNSGPLHRLTMMIKDKQQVKKSYIGVHQQIEAEMIKVTKTELEKLKCSYRQLIKEMNSAKEKYKEALAKG”, the “soluble on expression in E. coli” value is listed as “soluble”.
The value for “MGHHHHHHSHMGIKYHEESIHAAYVHVIENSRHYIYIENQFFISCADDKVVFNKIGDAIAQRILKAHRENQKYRVYVVIPLLPGFEGDISTGGGNALQAIMHFNYRTMCRGENSILGQLKAELGNQWINYISFCGLRTHAE” was “soluble”; that for “MGHHHHHHSHMGKGTFVYRTTITSPHEEVWAFFSSPTNLQTLTKIPKVVLDSTSETTQGSEIEMKLFVLGIPFQWKAYIEAYNPPFSFTDVAIKMPFPIVYWRHTHRFTTEGERTVMIDEIQYEIKMANKLVIFFLRRMFRARESALHRYFQS” was “soluble”; that for “MGHHHHHHSHMHGECVKEEKDFLKKEIVDDTKVKEEPPINHPVGCKRKLAMSRCETCGTEEAKYRCPRCMRYSCSLPCVKKHKAELTCNGVRDKTAYISIQQFTEMNLLSDYRFLEDVARTADHISRDAFLKRPISNKYMYFMKNRARRQGINLKLLPNGFTKRKENSTFFDKKKQQFCWHVKLQFPQSQAEYIEKRVPDDKTINEILKPYIDPEKSDPVIRQRLKAYIRSQTGVQILMKIEYMQQNLVRYYELDPYKSLLDNLRNKVIIEYPTLHVVLKGSNNDMKVLHQVKSESTKNVGNEN” was “not soluble”.
With “MGHHHHHHSHMIKQRTLKRIVQATGVGLHTGKKVTLTLRPAPANTGVIYRRTDLNPPVDFPADAKSVRDTMLCTCLVNEHDVRISTVEHLNAALAGLGIDNIVIEVNAPEIPIMDGSAAPFVYLLLDAGIDELNCAKKFVRIKETVRVEDGDKWAEFKPYNGFSLDFTIDFNHPAIDSSNQRYAMNFSADAFMRQISRARTFGFMRDIEYLQSRGLCLGGSFDCAIVVDDYRVLNEDGLRFEDEFVRHKMLDAIGDLFMCGHNIIGAFTAYKSGHALNNKLLQAVLAKQEAWEYVTFQDDAELPLAFKAPSAVLA”, the “soluble on expression in E. coli” value is “not soluble”.
For the sequence “MGHHHHHHSHMKDLTDMDKNSPEAWCAAGNCFSLQREHDIAIKFFQRAIQVDPNYAYAYTLLGHEFVLTEELDKALACFRNAIRVNPRHYNAWYGLGMIYYKQEKFSLAEMHFQKALDINPQSSVLLCH”, the “soluble on expression in E. coli” value is reported as “not soluble”.
As to “MGHHHHHHSHMKTLEAHKDPHKEVVRSAEEAASVLATSISPEQCIKVLCPIIQTADYPINLAAIKMQTKVIERVSKETLNLLLPEIMPGLIQGYDNSESSVRKACVFCLVAVHAVIGDELKPHLSQLTGSKMKLLNLYIKRAQTGSGGADPTTDVSGQS”, the “soluble on expression in E. coli” value was “not soluble”.
Regarding “MGHHHHHHSHMLRGMARMGGQRRLKALAAPRFWPILRKEYKWAVKPRPGPHPAEKSLPLLLIVRNVLGYAQTAREARKLISEGHFRVDGVVRKDYKFPVGFMDVIEVVDTGEKFRMLPYPVKFFKLHPIPEEEGDLKPVRIENKTTVKGGHVQLNLHDGRNILVRVKDPRNPVEDVYRTMDTLLITVPGQEIKGHIKFGEGAIAIIVGGRNVGRVGVVKSVQKGWGRKRTLVTLEDASGNLFQTSLDYVFVIGLDRPVISLPEGAWK”, the “soluble on expression in E. coli” value was “soluble”.
Consider “MGHHHHHHSHMNDSDSTPPKKKMRKTENGMYACDLCDKIFQKSSSLLRHKYEHTGKRPHECGICKKAFKHKHHLIEHMRLHSGEKPYQCDKCGKRFSHSGSYSQHMNHRYSYCKREAEERDSTEQEEAGPEILSNEHVGARASP”, for which the “soluble on expression in E. coli” value was “soluble”.
Next, “MGHHHHHHSHMNNQKVVAVLLQECRALLPSELRTLIQEAKEMKWPFVPEKWQYKQAVGPEDKTNLKDVIGAGLQQLLASLRASILARDCAAAAAIVFLVDRFLYGLDVSGKLLQVAKGLHKLQPATPIAPQVVIRQARISVNSGSHPAKHSM”: “not soluble”; “MGHHHHHHSHMPKHPSQSTVCQKGTPNSASKTKDKVNKRNERGETRLHRAAIRGDARRIKELISEGADVNVKDFAGWTALHEACNRGYYDVAKQLLAAGAEVNTKGLDDDTPLHDAANNGHYKVVKLLLRYGGNPQQSNRKGETPLKVANSPTMVNLLLGKGTYTSSEESSTESSEE”: “soluble”; “MGHHHHHHSHMQQAPVVLSTLDKLLNWGRSNSLWPLTYGLACCAIEMMATGGSRFDFDRFGTIFRASPRQSDVMIIAGTLTKKHAEFMRRLYDQMPEPKWVISMGSCANTGGMFNTYATVQGADRVVPVDIYLPGCAPRPETLQYALMVLQDKIRRSKAIKQDAPKRLV”: “not soluble”.
For “MGHHHHHHSHMRGRIYLEPPTMRKKRLLDRKVLLKSDSPTGDVLLDETLKHIKATEPTETVQTWIELLTGETWNPFKLQYQLRNVRERIAKNLVEKGILTTEKQNFLLFDMTTHPVTNTTEKQRLVKKLQDSVLERWVNDPQRMDKRTLALLVLAHSSDVLENVFSSLTDDKYDVAMNRAKDLVELDPEVEGTKPSATEMIWAVLAAFNKS”, the “soluble on expression in E. coli” value is “not soluble”.
“MGHHHHHHSHMRLLKSELGSFITDYFQNQLLAKGLFFVEEKIKLCEGENRIEVLAEVWDHFFTETLPTLQAIFYPVQSVHEPTGPSESYLQLEELVKQVVSPFLGISGDRSFSGPTYTLARRHSRVRPKVTVLNYASPITAVSRPLNEMVLTPLTEQEGEAYLEKCGSVRRHTVANAHSDIQLLAMATMMHSGLGEEASSENKCLLLPPSFPPPHRQCSSEPNITDNPDGLEEGARGSQEGSELNCASLS”: the “soluble on expression in E. coli” value was “not soluble”.
Take “MGHHHHHHSHMSCTVYAKTQQAKFLTWQFDGEYRGDDYTATLTLGNPDLIGESVIMVAHFLQSLTHRLVLGGELVYHRRPGEEGAILTLAGKYSAVHWVATLNVGSGGAHASYYHRANEQVQVGVEFEANTRLQDTTFSFGYHLTLPQANMVFRGLVDSNWCVGAVLEKKMPPLPVTLALGAFLNHWRNRFHCGFSITVG”: the “soluble on expression in E. coli” value is “not soluble”.
“MGHHHHHHSHMSGGEVVCSGWLRKSPPEKKLKRYAWKRRWFVLRSGRLTGDPDVLEYYKNDHAKKPIRIIDLNLCQQVDAGLTFNKKEFENSYIFDINTIDRIFYLVADSEEEMNKWVRCICDICGFNPTEEDPVK”: the “soluble on expression in E. coli” value is recorded as “not soluble”.
In the case of “MGHHHHHHSHMSNTDASGEKRVTGTSERREQIIQRLRQQGSVQVNDLSALYGVSTVTIRNDLAFLEKQGIAVRAYGGALICDSTTPSVEPSVEDKSALNTAMKRSVAKAAVELIQPGHRVILDSGTTTFEIARLMRKYTDVIAMTNGMNVANALLEAEGVELLMTGGHLRRQSQSFYGDQAEQSLQNYHFDMLFLGVDAIDLERGVSTHNEDEARLSRRMCEVAERIIVVTDSSKFNRSSLHKIIDTQRIDMIIVDEGIPADSLEGLRKAGVEVILVGDHASSL”, the “soluble on expression in E. coli” value is “soluble”.
For the sequence “MGHHHHHHSHMSQHGQSCLSLAGTIDCSVPDILLKSGVIGLAQWLTPVIPALWETEAGGSLEVRSSRPAWPTWRNPISTKNTKISQTWWRMPVVLATWEAEAGESVNLGGRGCSELRRCRCTPAWATRAKLHLRKNKNKNNGVTKT”, the “soluble on expression in E. coli” value is given as “not soluble”.
Next, “MGHHHHHHSHMSSYHCAMNNENARLLTFQTWPLTFLSPTDLAKAGFYYIGPGDRVACFACGGKLSNWEPKDNAMSEHLRHFPKCPFIENQLQDTSRYTVSNLSMQTHAARFKTFFNW”: “not soluble”.
